Measured values published in FireProtDB (doi:10.1021/cb5003762).
“And” between values parts separate entries of the source, which are not always exact repeats. Identical values can stand only once.

B1: Histone deacetylase 8, Q9BY41 (parent)
chain: MEEPEEPADSGQSLVPVYIYSPEYVSMCDSLAKIPKRASMVHSLIEAYALHKQMRIVKPKVASMEEMATFHTDAYLQHLQKVSQEGDDDHPDSIEYGLGYDCPATEGIFDYAAAIGGATITAAQCLIDGMCKVAINWSGGWHHAKKDEASGFCYLNDAVLGILRLRRKFERILYVDLDLHHGDGVEDAFSFTSKVMTVSLHKFSPGFFPGTGDVSDVGLGKGRYYSVNVPIQDGIQDEKYYQICESVLKEVYQAFNPKAVVLQLGADTIAGDPMCSFNMTPVGIGKCLKYILQWQLATLILGGGGYNLANTARCWTYLTGVILGKTLSSEIPDHEFFTAYGPDYVLEITPSCRPDRNEPHRIQQILNYIKGNLKHVV

Variants of: B1
Conditions: Homo sapiens; pH 7.5; Thermal; fluorescence; Hepes 25 mM; KCl 150 mM; structure 2V5W; whole UniProt chain shown

Variant	Tm
C153F	50.6 °C
A188T	46.5 °C and 50.6 °C
